Source: patent US8084434 (UNIVERSITY OF MARYLAND, dated 2011)

Target: T1, Flag.RUNX2(P409A) (Homo sapiens (Human), UniProt Q13950 20-521)
T1 construct: also called mutant RUNX2; RUNX2 mutant
Assay: co-immunoprecipitation, Flag.RUNX2(P409A) and HA.YAP
Experimental: Mutation of the first proline to an alanine completely abolished transcriptional activity. We reasoned that if YAP was directly interacting with RUNX2, a mutation of the first proline to an alanine in RUNX2 would reduce YAP binding and not affect the repression of the p21 CIP1 promoter. The mutant RUNX2, designated RUNX2 (P409A), was generated and its ability to interact with YAP was assessed. […] We expected that the mutant RUNX2 would retain its ability to bind DNA since the P409A mutation was downstream of the Runt DNA binding domain (amino acids 50-177). To measure RUNX2(P409A) DNA binding, DNA precipitation assays using the wild type 20-mer, double-stranded oligonucleotide from the p21 CIP1 promoter site A were performed using nuclear lysates from HEK293 cells transfected with two mutant Flag.RUNX2(P409A) clones. Both RUNX2(P409A) mutant clones retained DNA-binding activity. After verification of DNA binding, the ability of the RUNX2 mutant protein to repress p21CIP1 promoter activity was determined. NIH3T3 cells were transfected with either RUNX2 or RUNX2(P409A) and luciferase activity was measured. Both mutant RUNX2(P409A) clones and the wild-type RUNX2 were strong repressors of the p21CIP1 promoter. However, HA.YAP was unable to relieve p21 CIP1 promoter repression by the mutant Flag.RUNX2(P409A). […]

T1 sequence (Q13950 other isoform, or with tags, fused parts or gaps P409A P409A): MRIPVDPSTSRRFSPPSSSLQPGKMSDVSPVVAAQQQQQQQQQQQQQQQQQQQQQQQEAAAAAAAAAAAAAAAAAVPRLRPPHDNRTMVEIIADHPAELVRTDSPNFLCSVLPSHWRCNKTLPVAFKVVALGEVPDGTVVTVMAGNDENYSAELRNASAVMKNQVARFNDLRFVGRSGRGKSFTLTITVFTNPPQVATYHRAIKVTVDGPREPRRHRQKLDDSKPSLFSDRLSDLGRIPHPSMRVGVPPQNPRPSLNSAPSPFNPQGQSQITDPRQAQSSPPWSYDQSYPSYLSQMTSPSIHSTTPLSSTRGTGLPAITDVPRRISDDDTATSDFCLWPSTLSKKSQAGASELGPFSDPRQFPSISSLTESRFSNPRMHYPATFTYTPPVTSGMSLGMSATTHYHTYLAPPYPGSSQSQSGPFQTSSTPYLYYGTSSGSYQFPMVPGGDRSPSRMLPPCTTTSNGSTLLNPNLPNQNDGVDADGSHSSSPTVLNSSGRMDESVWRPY

- binding result: no binding
B1: HA.YAP (other, not shown: small tags and cut ends)
chain: MDPGQQPPPQPAPQGQGQPPSQPPQGQGPPSGPGQPAPAATQAAPQAPPAGHQIVHVRGDSETDLEALFNAVMNPKTANVPQTVPMRLRKLPDSFFKPPEPKSHSRQASTDAGTAGALTPQHVRAHSSPASLQLGAVSPGTLTPTGVVSGPAATPTAQHLRQSSFEIPDDVPLPAGWEMAKTSSGQRYFLNHIDQTTTWQDPRKAMLSQMNVTAPTSPPVQQNMMNSASAMNQRISQSAPVKQPPPLAPQSPQGGVMGGSNSNQQQQMRLQQLQMEKERLRLKQQELLRQVRPQELALRSQLPTLEQDGGTQNPVSSPGMSQELRTMTTNSSDPFLNSGTYHSRDESTDSGLSMSSYSVPRTPDDFLNSVDEMDTGDTINQSTLPSQQNRFPDYLEAIPGTNVDLGTLEGDGMNIEGEELMPSLQEALSSDILNDMESVLAATKLDKESFLTWL
notes: Expressed in HEK293 cells and assayed in nuclear lysates; also called HA-tagged YAP; YAP65
